We go through 15 sequences from the DeepSol protein solubility set.

This data set in a line: soluble on expression in E. coli; label from the status in PepcDB or PDB records.
As for “MTKVTIKAPSDYLQTDWSGGETNQLFLYPEDGDYKKREFSYRLSTATVALRQTTFTRLDGYHRILMSLDKPITLSDLSHAKEISLAPFQPYAFEGDTRIVSRGTCQDINLMYDDQYQGQLLPVWSDTPFEAPKADCQLLYALSKLTYSVTNQANQELEANHLLVTEQEASLSDLKVCLNQTSPAQTPVAVWAGLWYKT”, the “soluble on expression in E. coli” value is reported as “not soluble”.

For the sequence “MRVITVAGPPSVGKTSVVVKTATTLAAQGHRLGIVKFDSLSTSDDQVYRRAGLPVVVGLSGNVCPDHFFVSNIDDCVDWGRTHGVDILVAESAGLCNRCSPHVQGVQAICVVDNLSGVHTPRKIGPMLKLADVVVITKGDIVSQAEREVFAYNVRLANPRAQVMQFHGITGQGASDLAARMLCAPVVDALEGRRLRFSMPSAVCPYCIGETAIGVDHQRGNVRKMSFAEPARLEHHHHHH”, the “soluble on expression in E. coli” value was “soluble”.

For “MSLSRKNQELAKIFERMADILEFLGENPYRIRTYRRVANLISELQEDVEKAFYTRKLHHMPGIGESTLLKIEEFLKTGTIKKYEELRRMVPEDLLELLDAPGVGPKTLKIAYEQLGIRTKEEFIEALKKGKFNKIRGFGPVKALKILRGIELWEKSKERISLIEAYPMAQEVLKYMERIKDKYENISIAGSLRRMKETIGDIDILVSAKKENWKAIHEHFTKYPGLLEVLAKGETKSSIILDTGRQVDLRTVEPISWGAALQYFTGSKQHNIRIRDIAKEKGLKVNEYGVFKVDTEERIAGETEEGVYEVLGMQWIPPELREDWGEIELALEHKLPRLVELKDIKGDLHMHTNWSDGVNTLEEMVETAYKLGYQYIVIGDHSQSARVANGLDPERYKQQWKEIDRLNKEYNPKGFYILKGAEVDILPDGSLDLPDEVLEQFDFVVASVHSRFEQDNTERIIKAMENPYVNMIGHPTGKQYGYREGYPVNIEKLIQKAKETGTALELNTQRMDLSPENVRKCMEAGVYIGIVTDAHSARQLHLMFLGVGLARRGWATPDKVINTFDLEGLKEFVYKKRKNLAREGHHHHHH”, the “soluble on expression in E. coli” value is listed as “soluble”.

For the sequence “MRRNRFLAPLLVAASLLATAPAHGQPAPAAVLASDEAQRIALDAYVYVYPLVVMDLSRRQDTGGKGPGHAPANTFAHERRLPQADFRRLPRPNFDMLRSSAWLDLSTGPVVISTPETHGRLYTLSVLDMWTDIFAVLGKRTTGTARGNHAIVPPGWTGVLPRGMHRIDAPTAQVQARLYVQTGGSSEYPGVHAVQDGFILTPLAEWNQQAQSVRLRSDPDLDALTPAQQQVEGMNAEDYFGYAAELLRKHAPHATDQPMLARLRRLGIAPGQQLAFARLPTTVQQALRHAVRNGPQALRDSLPATGSLANGWQADADGAGVYGNAYLRRAVTTQARLGASLPEDVTAMLLLADAAGRPLEGGQRYVLRFEADQLPPAGALWSLNAYDAQGYPVGNGFNRYALGDRDPVRYNPDGSLELYLQRDPPGPDDQANWLPTGEGAPGVILRIYLPQASVLAGRWVPPAARRVEAADDAAALEHHHHHH”, the “soluble on expression in E. coli” value is recorded as “not soluble”.

For the sequence “HNPIDLMREIGALRQRGYNDRQIGEKIGVSTEYVNMIAGLLEKGEERLVSAVETGVLPLNLAIEISKTDAKGAQKALMDAYTQNKLRGRKLALVRRLIQQRELRGPQLHSNPLGRKPPKRALTSEGLVRAYQQEATRQKLLIKKAELTQSRLMFVREAFRKLRAD”, the “soluble on expression in E. coli” value is on record as “not soluble”.

Take “MNRIIDMRCRPPLPEFREYFDIPRITWHGARTGAKQVSRAFVEGSMDLFFEEMDQAGIEIAVVQGRNSPAVFMGKQFNAAFIPNERLAQIQDQYAGRFVCFAGIDVSNTAHNAVEETVRSIKSLGLKGIFIEPGRQIQSTPDDERIFPVYEKCIELDIPVNLMSGPYAGADIGVSDPLYVDRLCTRYPELKIILGHGGYPYVQQILGVAFKHTNLFVSPDMYVFAPGGQAYIDAANGALRDQMVYGSAYPLRPVTQTVSDTLGLGLSADSERAYLELNARKLLNIAAALEHHHHHH”: the “soluble on expression in E. coli” value is “not soluble”.

Turning to “MSLKGGYAVVDFKVPNERDNASTTKLEVNFPTDHPLASVMPQPVPGWKAEVTKAKPAKPLESHGKQITEVVTKVTWTADGKGVEPGYFQKFPVSIGALPEDADQLVFKAIQTYSNKEVVRWIEVPQEGQEEPETPAPVLKLSAAEDDAHGASEGHHHHHH”, the “soluble on expression in E. coli” value is given as “soluble”.

For “MCANIGVDPLASNKGFWAELLGIGDFYYELGVQIIEVCMLTRSHNGGLISLQELCNHLRQRRKKDREAVTEDDCLRAISKLKVLGSGFEVITIGKKKLVRSVPTELNKDHNQILELAQGQGFVIVEEVQRRLSWTSGRVIDALETLLEEGLAMIDNGHKDGKCRYWFPCVSSVYSSIGSDT”, the “soluble on expression in E. coli” value is listed as “soluble”.

As to “MEFAAENEGKSGGGLHSVAEGVRLSPEPGREGVRDLAGAEEFGGGEEGTGLTGIKEIGDGEEGSGQRPEEIPMDLTVVKQEIIDWPGTEGRLAGQWVEQEVEDRPEVKDENAGVLEVKQETDSSLVVKEAKVGEPEVKEEKVKEEVMDWSEVKEEKDNLEIKQEEKFVGQCIKEELMHGECVKEEKDFLKKEIVDDTKVKEEPPINHPVGCKRKLAMSRCETCGTEEAKYRCPRCMRYSCSLPCVKKHKAELTCNGVRDKTAYISIQQFTEMNLLSDYRFLEDVARTADHISRDAFLKRPISNKYMYFMKNRARRQGINLKLLPNGFTKRKENSTFFDKKKQQFCWHVKLQFPQSQAEYIEKRVPDDKTINEILKPYIDPEKSDPVIRQRLKAYIRSQTGVQILMKIEYMQQNLVRYYELDPYKSLLDNLRNKVIIEYPTLHVVLKGSNNDMKVLHQVKSESTKNVGNEN”, the “soluble on expression in E. coli” value is given as “soluble”.

Turning to “MAHHHHHHMKDGDWERRNRLKVYEGIYHVFIRDFKRGSELLLDSISTFASSELMDFNEFILITVVASLPVLSRSELKQQILDSPEVRSANIKDVFHLITVIYNCRYKEVFSALDTVCQHLRGIVYLSQHVNYFFREVRVLVFTQFLDSYSSVTLNSMSAAFGIPPPVLDSMLGTLISNERIACKMDRVSDSITTYRGDTTNFDYHRIVKNGDLLLNRIQKLSRLAEM”, the “soluble on expression in E. coli” value is listed as “not soluble”.

Regarding “MSGELRVRRASSWELDLILKEAEKYGELLHEFFCVVEGKYRDVYAVNEEVWKIIEDINMRPYSLGTFVGTIRVDENLVEKFYPNLEFFSLIKLEKNYVILGPKASFLFTTGKDAPKEAVREIKWQGSKRVVVLNDLGDIIGIGLINPKSDRRFIKNLKDVGEFLRR”, the “soluble on expression in E. coli” value is on record as “soluble”.

With “MGSDKIHHHHHHMNLAAFEAFVKVMETGSISVAADQLFITQPAVTKRIHSLEEYFGVKLFESAGRGVQATHAAHSLLPKVKSWLNELRDIHHTLSHEQTQIQGRLKIGTSHHIGLHHLPAPLKHFVQQFPQVTLDVHFVDSEQAHEQVLAGDLELAFLTLPPSGDERLNYITIWNDPLVFVAAPFHPLAQKKNLTLQDLIEYPSLLPAAQTYTAQITLAEFEKQGLKPKITMSNNPLESIRMLVSIGLGWSVLPKTLLNQDMQQLDLNVEMNRQLGMVWHPARTQSRAMQELIKMMQE”, the “soluble on expression in E. coli” value was “not soluble”.

Turning to “MGSDKIHHHHHHMQAAWLLGALVVPQLLSFGHGARGPGREWEGGWGGALEEERERESQMLKNLQEALGLPTGVGNEDNLAENPEDKEVWETTETQGEEEEEEITTAPSSSPNPFPSPSPTPEDTVTYILGRLASLDAGLHQLHVRLHVLDTRVVELTQGLRQLRDAASDTRDSVQALKEVQDRAEQEHGRLEGCLKGLRLGHKCFLLSRDFETQAAAQARCKARGGSLAQPADRQQMDALSRYLRAALAPYNWPVWLGVHDRRSEGLYLFENGQRVSFFAWHRAFSLESGAQPSAATHPLSPDQPNGGVLENCVAQASDDGSWWDHDCERRLYFVCEFPF”, the “soluble on expression in E. coli” value is listed as “not soluble”.

For the sequence “MLILGLVISCGGSKDITLPNKNVKIEGDVLTFKGKPFTGNIKMNLADKMDGYAGAMSFKDGHLDGLTDLKNDKENQQVKFTVVDGKFDGELIMKDAKQRTDIVLDIKNGAIVKYLADVQGAYKYDLSFVDNLANGTMEAQGQKFEFKDGIAKGPQGQELKLTLDPESGDLTMEAMVNGKVAGKQTIPNVLTPQYLETFIFRAVTMTNR”, the “soluble on expression in E. coli” value was “not soluble”.

For the sequence “MSKLGKQDVYYFEGLDDILIAMMTTKDAVGTEPAFGEVVRLPIATKLGIKGNGTALEKWASSKMFRRVSRETKHEIALDHVGIPIAVMDEIKGLIAQSGVTFGKNTAREFPYFAFGFIGNIENGGKKAVWYPKTQLSNVIDEEYTTAEDETKIDDVTANFVSTGLTYNNVMYSSFDSNRDSASIELFEKFIAQPVYDEEQWKKLAGPSRGGGSE”, the “soluble on expression in E. coli” value is “not soluble”.
